In the supplement of paper PMC10567573:

B1: MED27 (parent)
chain: YNENVYTEDGKLDIWSKSNYQVFQ
B2: ZBTB22 (parent)
chain: AVLAASSPYFHDQVLLKGMTSISL

Variants of: B1
Assay: protein stability index of a GFP-peptide fusion (GPS, HEK-293T) (PSI 1-6); higher = more stable
Details: c terminus: a fixed tail appended
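Further: lentivirally expressed fusions sorted by FACS into six bins by GFP to DsRed ratio, PSI derived from sequencing read proportions per bin multiplied by bin number.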

First: YNENVYTEDGKLDIWSKSEYQVFQ [N19E]
Second: YNENVYTEDGKLDIWSKSTYQVFQ [N19T]
The protein stability index of the first is higher: 3.36 for the first, 1.78 for the second.

Going from YNENVYTEDGKLDIWSKSFYQVFQ [N19F] to YNENVYTEDGKLDIWSKSGYQVFQ [N19G], the protein stability index rises from 1.67 to 1.96.

Going from YNENVYTEDGKLDIWSKSVYQVFQ [N19V] to YNENVYTEDGKLDIWSKSNYQFFQ [V22F], the protein stability index rises from 1.58 to 2.79.

Compared with YNENVYTEDGKLDIWSKSNYQGFQ [V22G], YNENVYTEDGKLDIWSKSNYQIFQ [V22I] is lower in protein stability index: 2.24 for the first, 2.22 for the second.

Going from YNENVYTEDGKLDIWSKSNYQVMQ [F23M] to YNENVYTEDGKLDIWSKSNYQVWQ [F23W], the protein stability index falls from 2.28 to 2.16.

First: YNENVYTEDGKLDIWSKSNYQVQQ [F23Q]
Second: YNENVYTEDGKLDIWSKSNYQVHQ [F23H]
The protein stability index of the first is higher: 3.29 for the first, 2.87 for the second.

Compared with YYENVYTEDGKLDIWSKSNYQVFQ [N2Y], YTENVYTEDGKLDIWSKSNYQVFQ [N2T] is lower in protein stability index: 2.1 for the first, 1.95 for the second.

Going from YGENVYTEDGKLDIWSKSNYQVFQ [N2G] to YQENVYTEDGKLDIWSKSNYQVFQ [N2Q], the protein stability index rises from 1.75 to 2.33.

YFENVYTEDGKLDIWSKSNYQVFQ [N2F] showed a protein stability index of 2.26.

Variants of: B2
Assay: as above
Details: c terminus: a fixed tail appended

First: AVLAASSPYFHDQVLLKGMHSISL [T20H]
Second: AVLAASSPYFHDQVLLKGMVSISL [T20V]
The protein stability index of the first is lower: 1.6 for the first, 4.26 for the second.

First: AVLAASSPYFHDQVLLKGMQSISL [T20Q]
Second: AVLAASSPYFHDQVLLKGMLSISL [T20L]
The protein stability index of the first is lower: 2.14 for the first, 3.1 for the second.

Going from AVLAASSPYFHDQVLLKGMKSISL [T20K] to AVLAASSPYFHDQVLLKGMNSISL [T20N], the protein stability index rises from 2.32 to 2.51.

Compared with AVLAASSPYFHDQVLLKGMESISL [T20E], AVLAASSPYFHDQVLLKGMMSISL [T20M] is higher in protein stability index: 2.54 for the first, 3.42 for the second.

First: AVLAASSPYFHDQVLLKGMISISL [T20I]
Second: AVLAASSPYFHDQVLLKVMTSISL [G18V]
The protein stability index of the first is lower: 2.3 for the first, 2.66 for the second.

First: AVLAASSPYFHDQVLLKSMTSISL [G18S]
Second: AVLAASSPYFHDQVLLKWMTSISL [G18W]
The protein stability index of the first is higher: 3.59 for the first, 2.61 for the second.

Going from AVLAASSPYFHDQVLLKYMTSISL [G18Y] to AVLAASSPYFHDQVLLKGMTSIML [S23M], the protein stability index falls from 3.35 to 1.86.

Going from AVLAASSPYFHDQVLLKGMTSIHL [S23H] to AVLAASSPYFHDQVLLKGMTSICL [S23C], the protein stability index falls from 2.46 to 1.95.

First: AVLAASSPYFHDQVLLKGMTSIGL [S23G]
Second: AVLAASSPYFHDQVLLKGMTSIFL [S23F]
The protein stability index of the first is lower: 3.35 for the first, 4.12 for the second.

First: AVLAASSPYFHDQVLLKGMTSIEL [S23E]
Second: AVLAASSPYFHDQVLLKGMTSIKL [S23K]
The protein stability index of the first is lower: 2.57 for the first, 2.8 for the second.

Going from AVLAASSPYFHDQVLLKGMTSIIL [S23I] to AVLAASSPYFHDQVLLKGMTSITL [S23T], the protein stability index falls from 2.51 to 1.22.

Compared with AVLAASSPYFHDQVLLKGMTSIPL [S23P], AVLAASSPYFHDQVLLKGMTSILL [S23L] is lower in protein stability index: 3.55 for the first, 2.64 for the second.

Compared with AVLAASSPYFHDQVLLKGMTSIWL [S23W], AVLAASSPYFHDQVLLKGMTSIDL [S23D] is lower in protein stability index: 2.97 for the first, 1.3 for the second.

Compared with AVLAASSPYFHDQVLLKGMTDISL [S21D], AVLAASSPYFHDQVLLKGMTAISL [S21A] is lower in protein stability index: 2.17 for the first, 2.04 for the second.

Compared with AVLAASSPYFHDQVLLKGMTQISL [S21Q], AVLAASSPYFHDQVLLKGMTNISL [S21N] is lower in protein stability index: 2.67 for the first, 2.11 for the second.

First: AVLAASSPYFHDQVLLKGMTLISL [S21L]
Second: AVLAASSPYFHDQVLLKGMTFISL [S21F]
The protein stability index of the first is higher: 3.04 for the first, 2.52 for the second.

Compared with AVLAASSPYFHDQVLLKGMTKISL [S21K], AVLAASSPYFHDQVLLKGMTCISL [S21C] is higher in protein stability index: 2.35 for the first, 3.52 for the second.

Going from AVLAASSPYFHDQVLLKGMTGISL [S21G] to AVLAASSPYFHDQVLLKGMTYISL [S21Y], the protein stability index rises from 2.85 to 3.85.

First: AVLAASSPYFHDQVLLKGMTEISL [S21E]
Second: AVLAASSPYFHDQVLLKGMTSISR [L24R]
The protein stability index of the first is higher: 1.95 for the first, 1.84 for the second.

Going from AVLAASSPYFHDQVLLKGMTSISS [L24S] to AVLAASSPYFHDQVLLKGMTSISH [L24H], the protein stability index rises from 1.15 to 1.95.

First: AVLAASSPYFHDQVLLKGMTSIST [L24T]
Second: AVLAASSPYFHDQVLLKGMTSISY [L24Y]
The protein stability index of the first is lower: 1.27 for the first, 3.14 for the second.

First: AVLAASSPYFHDQVLLKGMTSISQ [L24Q]
Second: AVLAASSPYFHDQVLLKGMTSISK [L24K]
The protein stability index of the first is lower: 1.7 for the first, 1.95 for the second.

Compared with AVLAASSPYFHDQVLLKGMTSISF [L24F], AVLAASSPYFHDQVLLKGMTSISD [L24D] is lower in protein stability index: 3.47 for the first, 1.76 for the second.

Compared with AVLAASSPYFHDQVLLKGMTSISE [L24E], AVLAASSPYFHDQVLLKGMTSISI [L24I] is higher in protein stability index: 1.52 for the first, 3.01 for the second.

First: AVLAASSPYFHDQVLLKGMTSISP [L24P]
Second: AVLAASSPYFHDQVLLKGMTSISA [L24A]
The protein stability index of the first is higher: 1.62 for the first, 1.58 for the second.

Going from AVLAASSPYFHDQVLLKGMTSISV [L24V] to AVLAASSPYFHDQVLLKGMTSISN [L24N], the protein stability index rises from 1.53 to 1.83.

Compared with AVLAASSPYFHDQVLLKGMTSKSL [I22K], AVLAASSPYFHDQVLLKGMTSNSL [I22N] is lower in protein stability index: 2.13 for the first, 1.44 for the second.

Compared with AVLAASSPYFHDQVLLKGMTSCSL [I22C], AVLAASSPYFHDQVLLKGMTSGSL [I22G] is higher in protein stability index: 1.83 for the first, 2.4 for the second.

Compared with AVLAASSPYFHDQVLLKGMTSESL [I22E], AVLAASSPYFHDQVLLKGMTSSSL [I22S] is lower in protein stability index: 4.43 for the first, 1.29 for the second.

First: AVLAASSPYFHDQVLLKGMTSASL [I22A]
Second: AVLAASSPYFHDQVLLKGMTSTSL [I22T]
The protein stability index of the first is higher: 3.31 for the first, 2.75 for the second.

Going from AVLAASSPYFHDQVLLKGMTSQSL [I22Q] to AVLAASSPYFHDQVLLKGMTSDSL [I22D], the protein stability index rises from 1.09 to 1.66.

Compared with AVLAASSPYFHDQVLLKGMTSYSL [I22Y], AVLAASSPYFHDQVLLKGMTSHSL [I22H] is lower in protein stability index: 3.76 for the first, 2.43 for the second.

First: AVLAASSPYFHDQVLLKGMTSPSL [I22P]
Second: AVLAASSPYFHDQVLLKGATSISL [M19A]
The protein stability index of the first is lower: 1.72 for the first, 2.09 for the second.

Compared with AVLAASSPYFHDQVLLKGSTSISL [M19S], AVLAASSPYFHDQVLLKGRTSISL [M19R] is higher in protein stability index: 2.68 for the first, 2.92 for the second.

First: AVLAASSPYFHDQVLLKGETSISL [M19E]
Second: AVLAASSPYFHDQVLLKGLTSISL [M19L]
The protein stability index of the first is lower: 1.69 for the first, 2.23 for the second.

Compared with AVLAASSPYFHDQVLLKGCTSISL [M19C], AVLAASSPYFHDQVLLKGWTSISL [M19W] is lower in protein stability index: 3.68 for the first, 1.8 for the second.

Going from AVLAASSPYFHDQVLLKGGTSISL [M19G] to AVLAASSPYFHDQVLLKGTTSISL [M19T], the protein stability index rises from 1.04 to 2.57.

Going from AVLAASSPYFHDQVLLKGQTSISL [M19Q] to AVLAASSPYFHDQVLLKGKTSISL [M19K], the protein stability index falls from 1.46 to 1.37.

Variant AVLAASSPYFHDQVLLKGPTSISL [M19P] has a protein stability index of 3.42.
